Assay results: patent US20210268016A1 (YALE UNIVERSITY, published 2021)

Biological target: biotinylated Aβ1-42 oligomers (Aßo) prepared from biotinylated synthetic Aβ1-42 peptide (human)
Experiment: biolayer interferometry, biotinylated Aßo on streptavidin sensor

B1: recombinant full-length human PrP^C (AA23-231) (receptor)
chain: not shown
binding result: binds
